# According to US20220073643A1 (NANJING GENSCRIPT BIOTECH, published 2022):
# Changes are numbered by the printed parent chain.
# B1: 207F8G5 (antibody, V domains shown)
# VH: QAYLQQSGAELVRSGASVKMSCKASGFTFTSYNIHWVKQTPGQGLEWIGYISPGNGGSNYNLKFKDKATLTSATSSSTAYMQISSLTSEDSAVYFCATGRGFAYWGQGTLVTVSA
# VL: DIVMTQSPSSLTVTPGEKVTMSCKSSQSLFNSGNQKNYLIWYQQKPGQPPKLLIYRASTRDSGVPDRFTGSGSGTDFTLTISNVQAEDLAIYYCQNDYSYPLTFGAGTKLELK
# B2: 424G9G3 (antibody, V domains shown)
# VH: QVQLQQSGPEVVRPGASVKMSCKGSGYTLNNFWMHWVKQRPGQGLEWIGMIDTSNGETRLNQIFKDKATLTVDKSSKTAYMQLSSLTSEDSAVYYCAPYGNFADWGQGTTLTVSS
# VL: DVLLTQTPLSLPVSLGDQASISCRSSQSIVYGNGNTYLEWYLQKPGQSPKLLIYKVSSRFSGVPDRFSGSGSGTDFTLKITKVEAEDLGVYYCFQGSHVPFTFGSGTKLEIK
# B3: 419A10D4 (antibody, V domains shown)
# VH: DVQLVESGGGLVQPGGSRKLSCAASGFTFSGFGMHWIRQTPEKGLEWVAYISSGSRPIYYADTVKGRFTISRDNPKNTLFLQMTSLRSEDTAMYFCARFYYGNSFDHWGQGTLVTVSA
# VL: DIVMTQSPSFLTVTAGEKVTMSCKSSQSLLNSGNQRNYLTWYQQKPGQPPKLLIYWASTRESGVPDRFTGSGSGTDFTLTVSSVQAEDLALYYCQNAYSFPLTFGAGTKLELK
# B4: 419A5F3 (antibody, V domains shown)
# VH: B3 VH with G54D, A97G
# VL: B3 VL with M21L, K24R, V81I, L89R, A106T, K113R
# B5: 421H4G3 (antibody, V domains shown)
# VH: B3 VH with T28S, M34L, Y101F, A118T
# VL: B3 VL with K24R, V81I, S82N
# B6: 423B2B5 (antibody, V domains shown)
# VH: B3 VH with G31S, I37V, T40A, R56S, A61S, T84S, F99I
# VL: B3 VL with F10S, S22N, R36K, V81I, L91V, A97D, F100Y
# B7: 425C6D3 (antibody, V domains shown)
# VH: B3 VH with K65Q, A118S
# VL: B3 VL with R36K, V81I
# B8: 420G10G3 (antibody, V domains shown)
# VH: B3 VH with P41A, K65Q
# VL: B3 VL with R36K, V81I
# B9: 422F4B6 (antibody, V domains shown)
# VH: B3 VH with T28S, G31S, I37V, T40A, R56S, T69I, F99I, D106A, H107Y
# VL: B3 VL with F10S, S28T, R36K, V81I, L91V, F100Y, A106S
# B10: 426D9F6 (antibody, V domains shown)
# VH: B3 VH
# VL: B3 VL
# B11: 425B3D5 (antibody, V domains shown)
# VH: B3 VH with K65Q, A118S
# VL: B3 VL with R36K, V81I
# B12: 420F12G8 (antibody, V domains shown)
# VH: B3 VH with T28A, A97V
# VL: B3 VL with S22T, K24R, S28N, R36K, Y55S, V81I, A86P, L102F
# B13: 422E8F9 (antibody, V domains shown)
# VH: B3 VH with K65Q, A118S
# VL: B3 VL with R36K, V81I
# B14: 203A6D5 (antibody, V domains shown)
# VH: QVQLKQSGPGLVQPSQSLSITCTVSGFSLTRYGVHWVRQSPGKGLEWLGVIWSGGNTDYNAAFISRLNIRKDNSKSQVFFKMNSLKPNDTAIYYCARAAYFGNSFDYWGQGTTLTVSS
# VL: B3 VL with F10S, T12P, R36K, E61D, V81I, L91V, A97N, S99I, F100Y
# B15: 420D5H5 (antibody, V domains shown)
# VH: B3 VH with F29L, A61V, K65E, A118S
# VL: B3 VL with R36K, V81I, S82R, S83G
# B16: 420H3H9 (antibody, V domains shown)
# VH: DVQLVESGGGLVQPGGSRKLSCAASGFTFSSFGMHWVRQAPEKGLEWVAYISSGSSTIYYAHSVKGRFTISRDNPKNTLFLQMTSLGSEDTAMYYCARFYYGNSFAYWGQGTLVTVSA
# VL: B3 VL with F10S, M21L, R36K, L52M, V81I, L91D, S99T, F100Y, K109R
# B17: 419B5G9 (antibody, V domains shown)
# VH: B16 VH with S31T, S53G, S56T, Y59F, H62D, S63T, L86V, G87R, Q110P, A118T
# VL: B3 VL with F10S, R36K, L52M, V81I, L91V, F100Y
# B18: 426H6E11 (antibody, V domains shown)
# VH: B3 VH with K65Q, A118S
# VL: B3 VL with S7F, S28T, R36K, V81I, K109N
# B19: 420H7E6 (antibody, V domains shown)
# VH: DVQLVESGGGLVQPGGSRKLSCVTSGFTFSSFGMHWIRQAPEKGLEWVAFISGGGSPIFYADSVKGRFTVSRDNPKNTLFLQMTGLRSEDTAMYFCARFYFGNSFAYWGQGTLVTVSA
# VL: DIVMAQSPSSLTVTAGEKVTMNCRSSQSLFNSGNQKNYLTWYQQKPGQPPKLLIYWASTRESGVPVRFTGSGSGTDFTLTISSVQAEDLAVYYCQTGFSYPLTFGPGTKLELK
# B20: 423C10E1 (antibody, V domains shown)
# VH: B19 VH with I37V
# VL: B19 VL with A5T, P49S, G97S, S99N
# Biological target: human Claudin18.2 (human)
# Experiment: cell-based or functional assay
CDC % Relative activity [%],CDC EC50 [µg/mL],Binder
627,0.305,B1
9.38,20.3,B2
91.5,1.88,B3
61.7,2.79,B4
65.9,2.89,B5
6.38,29.9,B6
96.6,2.08,B7
72.4,2.63,B8
31.6,6.03,B9
32.4,6.21,B10
63,3.02,B11
52.6,3.27,B12
89.2,2.14,B13
571,0.336,B14
78.3,2.2,B15
458,0.416,B16
349,0.494,B17
80,2.51,B18
48.8,3.9,B19
56.2,3.39,B20
